Measured values as given in PMC9352680, “A comprehensive thermodynamic model for RNA binding by the Saccharomyces cerevisiae Pumilio protein PUF4”.

T1: PUF4 RNA-binding domain (Saccharomyces cerevisiae, UniProt P25339 537-888)
T1 sequence: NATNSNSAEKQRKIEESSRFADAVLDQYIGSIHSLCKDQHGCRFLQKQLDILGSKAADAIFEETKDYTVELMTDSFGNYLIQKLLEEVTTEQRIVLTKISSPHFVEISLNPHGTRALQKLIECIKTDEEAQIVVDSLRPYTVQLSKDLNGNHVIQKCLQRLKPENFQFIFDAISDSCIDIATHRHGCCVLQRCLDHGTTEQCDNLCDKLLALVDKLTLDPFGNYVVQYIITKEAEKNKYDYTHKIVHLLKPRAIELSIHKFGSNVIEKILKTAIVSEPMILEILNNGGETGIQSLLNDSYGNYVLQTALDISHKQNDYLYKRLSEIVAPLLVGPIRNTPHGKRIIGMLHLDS

B1: Ic_S1_P4E.1_K4.1_C4.1_H4.1_A4.1_[A6C]_F4.1_[T8G]_[A9T]_T4.1 (ssRNA)
RNA: UCUCUUUGUAUCUGUUCUCUU
B2: Ic_S1_P4E.1_K4.1_C4.1_H4.1_A4.1_[A6T]_[T7G]_F4.1_[T8C]_[A9T]_T4.1 (ssRNA)
RNA: UCUCUUUGUAUUGCUUCUCUU
B3: Ic_S1_P4E.1_K4.1_C4.1_H4.1_A4.1_[A6C]_[T7A]_F4.1_[A9G]_T4.1 (ssRNA)
RNA: UCUCUUUGUAUCAUGUCUCUU
B4: Ic_S1_P4E.1_K4.1_C4.1_H4.1_A4.1_[A6T]_[T7G]_F4.1_[T8C]_T4.1 (ssRNA)
RNA: UCUCUUUGUAUUGCAUCUCUU
B5: Ic_S1_P4E.1_K4.1_C4.1_H4.1_A4.1_[A6T]_[T7G]_F4.1_[A9T]_T4.1 (ssRNA)
RNA: UCUCUUUGUAUUGUUUCUCUU
B6: Ic_S1_P4E.1_K4.1_C4.1_H4.1_A4.1_[A6T]_[T7G]_F4.1_[T8G]_[A9T]_T4.1 (ssRNA)
RNA: UCUCUUUGUAUUGGUUCUCUU
B7: Ic_S1_P4E.1_K4.1_C4.1_H4.1_A4.1_[A6C]_F4.1_[T8A]_[A9C]_T4.1 (ssRNA)
RNA: UCUCUUUGUAUCUACUCUCUU
B8: Ic_S1_P4E.1_K4.1_C4.1_H4.1_A4.1_[A6C]_[T7C]_F4.1_[T8A]_[A9G]_T4.1 (ssRNA)
RNA: UCUCUUUGUAUCCAGUCUCUU
B9: Ic_S1_P4E.1_K4.1_C4.1_H4.1_A4.1_[A6C]_[T7C]_F4.1_[A9T]_T4.1 (ssRNA)
RNA: UCUCUUUGUAUCCUUUCUCUU
B10: Ic_S1_P4E.1_K4.1_C4.1_H4.1_A4.1_[A6C]_[T7A]_F4.1_[T8A]_[A9C]_T4.1 (ssRNA)
RNA: UCUCUUUGUAUCAACUCUCUU
B11: Ic_S1_P4E.1_K4.1_C4.1_H4.1_A4.1_[A6C]_[T7C]_F4.1_[A9G]_T4.1 (ssRNA)
RNA: UCUCUUUGUAUCCUGUCUCUU
B12: Ic_S1_P4E.1_K4.1_C4.1_H4.1_A4.1_[A6C]_[T7C]_F4.1_[A9C]_T4.1 (ssRNA)
RNA: UCUCUUUGUAUCCUCUCUCUU
B13: Ic_S1_P4E.1_K4.1_C4.1_H4.1_A4.1_[A6T]_[T7G]_F4.1_[A9G]_T4.1 (ssRNA)
RNA: UCUCUUUGUAUUGUGUCUCUU
B14: Ic_S1_P4E.1_K4.1_C4.1_H4.1_A4.1_[A6C]_F4.1_[T8C]_[A9G]_T4.1 (ssRNA)
RNA: UCUCUUUGUAUCUCGUCUCUU
B15: Ic_S1_P4E.1_K4.1_C4.1_H4.1_A4.1_[A6T]_[T7C]_F4.1_[T8C]_T4.1 (ssRNA)
RNA: UCUCUUUGUAUUCCAUCUCUU
B16: Ic_S1_P4E.1_K4.1_C4.1_H4.1_A4.1_[A6C]_[T7A]_F4.1_[T8C]_[A9C]_T4.1 (ssRNA)
RNA: UCUCUUUGUAUCACCUCUCUU
B17: Ic_S1_P4E.1_K4.1_C4.1_H4.1_A4.1_[A6C]_[T7A]_F4.1_[T8G]_[A9T]_T4.1 (ssRNA)
RNA: UCUCUUUGUAUCAGUUCUCUU
B18: Ib_S1_P3E.1_K3.1_C3.1_H3.1_A3.1_[A6T]_F3.1_[T7C]_T3.1 (ssRNA)
RNA: UCUCUUUGUAUUCAUCUCUU
B19: Ic_S1_P4E.1_K4.1_C4.1_H4.1_A4.1_[A6C]_[T7C]_F4.1_[T8C]_T4.1 (ssRNA)
RNA: UCUCUUUGUAUCCCAUCUCUU
B20: Ic_S1_P4E.1_K4.1_C4.1_H4.1_A4.1_[A6T]_[T7G]_F4.1_[T8C]_[A9C]_T4.1 (ssRNA)
RNA: UCUCUUUGUAUUGCCUCUCUU
B21: Ic_S1_P4E.1_K4.1_C4.1_H4.1_A4.1_[A6T]_[T7C]_F4.1_[T8G]_T4.1 (ssRNA)
RNA: UCUCUUUGUAUUCGAUCUCUU
B22: Ic_S1_P4E.1_K4.1_C4.1_H4.1_A4.1_[A6T]_[T7C]_F4.1_[T8C]_[A9T]_T4.1 (ssRNA)
RNA: UCUCUUUGUAUUCCUUCUCUU
B23: Ic_S1_P4E.1_K4.1_C4.1_H4.1_A4.1_[A6C]_[T7C]_F4.1_[T8C]_[A9G]_T4.1 (ssRNA)
RNA: UCUCUUUGUAUCCCGUCUCUU
B24: Ic_S1_P4E.1_K4.1_C4.1_H4.1_A4.1_[A6C]_[T7C]_F4.1_[T8C]_[A9C]_T4.1 (ssRNA)
RNA: UCUCUUUGUAUCCCCUCUCUU
B25: Ic_S1_P4E.1_K4.1_C4.1_H4.1_A4.1_[A6C]_[T7G]_F4.1_[T8A]_[A9C]_T4.1 (ssRNA)
RNA: UCUCUUUGUAUCGACUCUCUU
B26: Ic_S1_P4E.1_K4.1_C4.1_H4.1_A4.1_[A6T]_[T7C]_F4.1_[T8C]_[A9C]_T4.1 (ssRNA)
RNA: UCUCUUUGUAUUCCCUCUCUU
B27: Ic_S1_P4E.1_K4.1_C4.1_H4.1_A4.1_[A6C]_[T7C]_F4.1_[T8G]_[A9T]_T4.1 (ssRNA)
RNA: UCUCUUUGUAUCCGUUCUCUU
B28: Ic_S1_P4E.1_K4.1_C4.1_H4.1_A4.1_[A6T]_[T7C]_F4.1_[T8G]_[A9C]_T4.1 (ssRNA)
RNA: UCUCUUUGUAUUCGCUCUCUU
B29: Ic_S1_P4E.1_K4.1_C4.1_H4.1_A4.1_[A6C]_[T7A]_F4.1_[T8G]_[A9C]_T4.1 (ssRNA)
RNA: UCUCUUUGUAUCAGCUCUCUU
B30: Ic_S1_P4E.1_K4.1_C4.1_H4.1_A4.1_[A6C]_[T7A]_F4.1_[T8C]_T4.1 (ssRNA)
RNA: UCUCUUUGUAUCACAUCUCUU
B31: Ic_S1_P3E.1_K3.1_C3.1_H3.1_A3.1_[A6G]_F3.1_[T7C]_T3.1 (ssRNA)
RNA: UCUCUUUGUAUGCAUCUCUU
B32: Ic_S1_P4E.1_K4.1_C4.1_H4.1_A4.1_[A6T]_[T7C]_F4.1_[A9C]_T4.1 (ssRNA)
RNA: UCUCUUUGUAUUCUCUCUCUU
B33: Ib_S1_P3E.1_K3.1_C3.1_H3.1_A3.1_[A6T]_F3.1_[T7A]_T3.1 (ssRNA)
RNA: UCUCUUUGUAUUAAUCUCUU
B34: Ic_S1_P4E.1_K4.1_C4.1_H4.1_A4.1_[A6C]_[T7C]_F4.1_[T8A]_[A9C]_T4.1 (ssRNA)
RNA: UCUCUUUGUAUCCACUCUCUU
B35: Ic_S1_P4E.1_K4.1_C4.1_H4.1_A4.1_[A6T]_[T7C]_F4.1_[T8A]_[A9T]_T4.1 (ssRNA)
RNA: UCUCUUUGUAUUCAUUCUCUU
B36: Ic_S1_P4E.1_K4.1_C4.1_H4.1_A4.1_[A6C]_[T7C]_F4.1_[T8A]_[A9T]_T4.1 (ssRNA)
RNA: UCUCUUUGUAUCCAUUCUCUU
B37: Ia_S1_P3E.1_K3.1_C3.1_H3.1_A3.1_[A6T]_F3.1_T3.1 (ssRNA)
RNA: UCUCUUUGUAUUUAUCUCUU
B38: Ic_S1_P4E.1_K4.1_C4.1_H4.1_A4.1_[A6T]_[T7G]_F4.1_[T8C]_[A9G]_T4.1 (ssRNA)
RNA: UCUCUUUGUAUUGCGUCUCUU
B39: Ic_S1_P4E.1_K4.1_C4.1_H4.1_A4.1_[A6T]_[T7C]_F4.1_[T8A]_[A9G]_T4.1 (ssRNA)
RNA: UCUCUUUGUAUUCAGUCUCUU
B40: Ic_S1_P4E.1_K4.1_C4.1_H4.1_A4.1_[A6C]_[T7G]_F4.1_[A9G]_T4.1 (ssRNA)
RNA: UCUCUUUGUAUCGUGUCUCUU
B41: Ic_S1_P4E.1_K4.1_C4.1_H4.1_A4.1_[A6C]_[T7G]_F4.1_[T8A]_[A9T]_T4.1 (ssRNA)
RNA: UCUCUUUGUAUCGAUUCUCUU
B42: Ic_S1_P4E.1_K4.1_C4.1_H4.1_A4.1_[A6C]_[T7A]_F4.1_[A9C]_T4.1 (ssRNA)
RNA: UCUCUUUGUAUCAUCUCUCUU
B43: Ic_S1_P4E.1_K4.1_C4.1_H4.1_A4.1_[A6C]_[T7A]_F4.1_[A9T]_T4.1 (ssRNA)
RNA: UCUCUUUGUAUCAUUUCUCUU
B44: Ic_S1_P4E.1_K4.1_C4.1_H4.1_A4.1_[A6C]_F4.1_[T8C]_[A9T]_T4.1 (ssRNA)
RNA: UCUCUUUGUAUCUCUUCUCUU
B45: Ic_S1_P4E.1_K4.1_C4.1_H4.1_A4.1_[A6T]_[T7G]_F4.1_[T8G]_[A9C]_T4.1 (ssRNA)
RNA: UCUCUUUGUAUUGGCUCUCUU
B46: Ic_S1_P4E.1_K4.1_C4.1_H4.1_A4.1_[A6C]_[T7A]_F4.1_[T8A]_[A9T]_T4.1 (ssRNA)
RNA: UCUCUUUGUAUCAAUUCUCUU
B47: Ic_S1_P4E.1_K4.1_C4.1_H4.1_A4.1_[A6T]_[T7C]_F4.1_[T8G]_[A9G]_T4.1 (ssRNA)
RNA: UCUCUUUGUAUUCGGUCUCUU
B48: Ic_S1_P3E.1_K3.1_C3.1_H3.1_A3.1_[A6C]_F3.1_[T7A]_T3.1 (ssRNA)
RNA: UCUCUUUGUAUCAAUCUCUU
B49: Ic_S1_P4E.1_K4.1_C4.1_H4.1_A4.1_[A6C]_F4.1_[T8A]_[A9G]_T4.1 (ssRNA)
RNA: UCUCUUUGUAUCUAGUCUCUU
B50: Ic_S1_P4E.1_K4.1_C4.1_H4.1_A4.1_[A6C]_[T7C]_F4.1_[T8A]_T4.1 (ssRNA)
RNA: UCUCUUUGUAUCCAAUCUCUU
B51: Ic_S1_P4E.1_K4.1_C4.1_H4.1_A4.1_[A6C]_[T7G]_F4.1_[A9T]_T4.1 (ssRNA)
RNA: UCUCUUUGUAUCGUUUCUCUU

Each binder was assayed against T1, PUF4 RNA-binding domain (assay: Mg; RNA-MaP; 20 mM Na-HEPES pH 7.4, 30 mM KOAc, 0.75 mM MgCl2, 0.1% Tween-20, 5% glycerol, 0.1 mg/mL BSA, 2 mM DTT; 25 C; 0.0125-409.6 nM protein). Settings: tags: N-His6-TEV cleaved; C-SNAP kept, Cy3B-labelled; label: tethered on chip by stalled RNA polymerase.

Binder	Kd [nM]
B1	58.6
B2	443
B3	8.82
B4	365
B5	33.6
B6	500
B7	28.9
B8	2020
B9	44.9
B10	508
B11	82.6
B12	67.2
B13	40.2
B14	382
B15	454
B16	432
B17	316
B18	296
B19	709
B20	943
B21	753
B22	114
B23	> 2300
B24	1020
B25	> 2300
B26	505

Binder	Kd [nM]
B27	1300
B28	1060
B29	606
B30	74.8
B31	1280
B32	38.5
B33	312
B34	981
B35	141
B36	362
B37	36.2
B38	926
B39	642
B40	432
B41	581
B42	17.6
B43	11.2
B44	522
B45	1330
B46	91.5
B47	> 2300
B48	108
B49	43.8
B50	1050
B51	328
